Reference: patent publication US20200148732A1 (UNIVERSITY OF COPENHAGEN, published 2020)
Substitutions are numbered along the chain they refer to.

Tests used:
GFP-TONSL N571A = target: T1, GFP-TONSL N571A (Homo sapiens, UniProt Q96HA7 1-1378); assay: GFP immunoprecipitation of GFP-TONSL from transfected HeLa S3 cells, western blot (co-IP; association may be indirect)
T1 construct: also called TONSL N571A / GFP; not shown: N-terminal GFP tag
T1 sequence: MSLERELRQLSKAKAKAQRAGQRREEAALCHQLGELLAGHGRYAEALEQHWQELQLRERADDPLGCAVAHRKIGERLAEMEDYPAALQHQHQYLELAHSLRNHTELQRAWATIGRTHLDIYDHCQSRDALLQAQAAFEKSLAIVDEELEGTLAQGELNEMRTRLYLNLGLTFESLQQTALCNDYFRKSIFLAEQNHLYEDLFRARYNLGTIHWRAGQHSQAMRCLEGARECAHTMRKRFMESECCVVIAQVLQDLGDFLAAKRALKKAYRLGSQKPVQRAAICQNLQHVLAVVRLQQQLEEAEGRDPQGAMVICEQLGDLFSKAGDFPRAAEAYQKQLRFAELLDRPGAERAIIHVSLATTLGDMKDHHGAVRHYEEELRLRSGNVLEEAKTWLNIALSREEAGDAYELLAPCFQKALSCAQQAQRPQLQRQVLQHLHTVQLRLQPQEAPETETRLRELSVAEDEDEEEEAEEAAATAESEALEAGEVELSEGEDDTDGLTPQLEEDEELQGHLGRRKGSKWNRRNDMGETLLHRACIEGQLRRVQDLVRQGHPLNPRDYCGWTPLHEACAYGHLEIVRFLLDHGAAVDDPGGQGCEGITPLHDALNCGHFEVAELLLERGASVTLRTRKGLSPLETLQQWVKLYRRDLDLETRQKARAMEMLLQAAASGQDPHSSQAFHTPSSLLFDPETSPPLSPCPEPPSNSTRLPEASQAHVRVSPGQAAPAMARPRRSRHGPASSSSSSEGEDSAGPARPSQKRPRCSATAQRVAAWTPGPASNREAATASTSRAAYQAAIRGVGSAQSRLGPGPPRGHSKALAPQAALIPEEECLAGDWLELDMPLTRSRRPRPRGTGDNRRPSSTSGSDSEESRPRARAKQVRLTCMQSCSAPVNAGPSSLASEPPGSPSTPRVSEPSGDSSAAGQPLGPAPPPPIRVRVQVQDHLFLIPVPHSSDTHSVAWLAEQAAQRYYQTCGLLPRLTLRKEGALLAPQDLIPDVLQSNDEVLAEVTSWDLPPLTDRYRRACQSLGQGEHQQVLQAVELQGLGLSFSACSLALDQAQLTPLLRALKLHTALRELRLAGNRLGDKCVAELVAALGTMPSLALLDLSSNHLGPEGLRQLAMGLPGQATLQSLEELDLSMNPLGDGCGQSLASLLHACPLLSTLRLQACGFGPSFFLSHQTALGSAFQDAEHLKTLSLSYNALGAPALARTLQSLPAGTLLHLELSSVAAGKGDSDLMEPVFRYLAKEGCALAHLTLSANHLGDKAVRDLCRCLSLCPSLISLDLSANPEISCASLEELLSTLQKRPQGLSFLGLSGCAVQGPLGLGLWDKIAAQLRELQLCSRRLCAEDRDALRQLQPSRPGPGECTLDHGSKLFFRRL

GFP-TONSL E530A = target: T2, GFP-TONSL E530A (Homo sapiens, UniProt Q96HA7 1-1378); assay: as above
T2 construct: also called TONSL E530A / GFP; not shown: N-terminal GFP tag
T2 sequence: T1 sequence with E530A, A571N

- binding result (GFP-TONSL N571A): binds
- binding result (GFP-TONSL E530A): binds
B1: MMS22L (endogenous, in cell extracts) (other, UniProt Q6ZRQ5 1-1243, looked up)
chain: MENCSAASTFLTDSLELELGTEWCKPPYFSCAVDNRGGGKHFSGESYLCSGALKRLILNLDPLPTNFEEDTLEIFGIQWVTETALVNSSRELFHLFRQQLYNLETLLQSSCDFGKVSTLHCKADNIRQQCVLFLHYVKVFIFRYLKVQNAESHVPVHPYEALEAQLPSVLIDELHGLLLYIGHLSELPSVNIGAFVNQNQIKLFPPSWHLLHLHLDIHWLVLEILYMLGEKLKQVVYGHQFMNLASDNLTNISLFEEHCETLLCDLISLSLNRYDKVRSSESLMSDQCPCLCIKELWVLLIHLLDHRSKWFVSESFWNWLNKLLKTLLEKSSDRRRSSMPVIQSRDPLGFSWWIITHVASFYKFDRHGVPDEMRKVESNWNFVEELLKKSISVQGVILEEQLRMYLHCCLTLCDFWEPNIAIVTILWEYYSKNLNSSFSISWLPFKGLANTMKSPLSMLEMVKTCCCDKQDQELYKSSSSYTIFLCILAKVVKKAMKSNGPHPWKQVKGRIYSKFHQKRMEELTEVGLQNFFSLFLLLAAVAEVEDVASHVLDLLNFLKPAFVTSQRALIWKGHMAFLLMYAQKNLDIGVLAEKFSCAFREKAKEFLVSKNEEMVQRQTIWTLLSIYIDGVQEVFETSYCLYPSHEKLLNDGFSMLLRACRESELRTVLSFLQAVLARIRSMHQQLCQELQRDNVDLFVQSSLSAKERHLAAVASALWRHFFSFLKSQRMSQVVPFSQLADAAADFTLLAMDMPSTAPSDFQPQPVISIIQLFGWDDIICPQVVARYLSHVLQNSTLCEALSHSGYVSFQALTVRSWIRCVLQMYIKNLSGPDDLLIDKNLEEAVEKEYMKQLVKLTRLLFNLSEVKSIFSKAQVEYLSISEDPKKALVRFFEAVGVTYGNVQTLSDKSAMVTKSLEYLGEVLKYIKPYLGKKVFSAGLQLTYGMMGILVKSWAQIFATSKAQKLLFRIIDCLLLPHAVLQQEKELPAPMLSAIQKSLPLYLQGMCIVCCQSQNPNAYLNQLLGNVIEQYIGRFLPASPYVSDLGQHPVLLALRNTATIPPISSLKKCIVQVIRKSYLEYKGSSPPPRLASILAFILQLFKETNTDIYEVELLLPGILKCLVLVSEPQVKRLATENLQYMVKACQVGSEEEPSSQLTSVFRQFIQDYGMRYYYQVYSILETVATLDQQVVIHLISTLTQSLKDSEQKWGLGRNIAQREAYSKLLSHLGQMGQDEMQRLENDNT
